Values quoted from earlier work as cited in publication PMC5803488.
Where two headings read alike, the source gives them in different places.

Tests used:
ubiquitin [1] = biological target: ubiquitin (UniProt P0CG48)
ubiquitin [2] = biological target: ubiquitin (UniProt P0CG48); remark: listed apart in the source

Vps36 (Eap45) GLUE, sequence (Q86VN1 1-138): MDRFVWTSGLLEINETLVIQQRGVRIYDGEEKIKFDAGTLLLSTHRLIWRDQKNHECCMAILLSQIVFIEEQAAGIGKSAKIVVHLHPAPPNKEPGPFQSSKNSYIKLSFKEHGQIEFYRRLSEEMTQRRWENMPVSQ
Tsg101 UEV, sequence (Q99816 1-148): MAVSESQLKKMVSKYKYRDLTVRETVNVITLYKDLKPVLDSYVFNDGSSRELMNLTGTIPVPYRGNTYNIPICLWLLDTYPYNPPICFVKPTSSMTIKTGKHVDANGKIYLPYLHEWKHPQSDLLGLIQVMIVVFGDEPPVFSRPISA

Tsg101 UEV (from UniProt Q99816)
Kd (ubiquitin [1]): 510 µM

Vps36 (Eap45) GLUE (from UniProt Q86VN1)
Kd (ubiquitin [2]): 330 µM
